± gives the half width of the 95% confidence interval.
Experiment: folding stability dG unfold (combined trypsin and chymotrypsin); higher = more stable
Protocol: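 Folding stability of de novo designed mini-proteins (<80 aa, no Cys; designed by TrROS, TrMRF, ProteinMPNN and the joint model) was measured by cDNA display proteolysis with trypsin and chymotrypsin. Each protease was used at 11 concentrations in a threefold dilution series plus a no-protease condition. K50 was inferred by Bayesian fitting of sequencing counts, and dG unfold was derived against a sequence-predicted unfolded-state K50 (Tsuboyama et al. method). Sequences shown include variable-length N-terminal GS-type padding (SAGGSAGG...) inside a display construct carrying a PA tag. Rows were kept only if the AF2 dimer inter-PAE was >15, to exclude likely homo-oligomers.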

Row | Sequence | folding stability dG unfold
1 | SAGGSAGGSDKEREVPIEVRYPNQPLKIPVEFKDEEDAPHKARSAIKPLMKKLPMVKIPKPDDSAGGSAGGS [r12_230_TrROS] | < -1 kcal/mol
2 | SAGGSAGGPKPEIDIEPYPEEGQMYVKIRLPGNGRPITIPVEGPMTPNDPEKAIEEAKDALEKFSAGGSAGG [r6_331_TrROS] | < -1 kcal/mol
3 | SSPPPSITVKSISREPATGTVTIPTSHPSGKHISVEWRSPDGTVTVVPPDKPTATLPAAPDWTLTKISVGSA [r9_113_JUSTAS] | < -1 kcal/mol
4 | SAGGSAGGSAGPRVTLTPDPNSDYVLVTTYPGDGSSTTSNVPVSELEKVRKELPADFTLASAGGSAGGSAGG [r11_569_JUSTAS] | < -1 kcal/mol
5 | SAGGSAGGSAGGMTAVVTEPRLENGKEYLVRTVREFPSAEPRPGAVLEEEVVPLDVPLESAGGSAGGSAGGS [r10_730_JUSTAS] | < -1 kcal/mol
6 | SAGGSAGGSAMDPDDQLPTIEEIAKKFGMDATIEPRRNPNGMPYRTATVQNNGGPVGEISIPSAGGSAGGSA [r18_369_TrROS] | < -1 kcal/mol
7 | SAGGSAGGSAGSNKVSPVITLEEDPDGTVTRTVTLKINTPEGKTLTTTSTDPLSPDSALKRSAGGSAGGSAG [r3_180_JUSTAS] | < -1 kcal/mol
8 | SAGGSAGGWIEIDPNDGKLEILYPPGMNPDELTDFIEEFGFPFKPKSVEYNPDNGMRKVEFKFKSAGGSAGG [r6_396_TrROS] | < -1 kcal/mol
9 | SAGITIDELRNQPPKKRVTEVNWNPNQGNYRVEVVRPDPDGKPKKHEYEVNSPQQIRDKLKNGFDYIHISAG [r5_905_TrROS] | < -1 kcal/mol
10 | SAGGSAGGSSWDEVREIAREARKEGFPMVSIRYDDKNTHQINFEDGPIEPLPNPDNVKIEIMRSAGGSAGGS [r20_44_TrROS] | < -1 kcal/mol
11 | SAGGSMVVTTEPDGSVTVTTSASSPEEAKASVIAYLKEQGLKVKSLPVEVPPDGSVTVTLPVEPPLESAGGS [r8_253_JUSTAS] | < -1 kcal/mol
12 | SAGGSMETIELTINLGSKTITKTEEVSPGREEELIEKIREEGYPEIKVDKITIKPPDGSTERTIGLKSAGGS [r8_219_JUSTAS] | < -1 kcal/mol
13 | SAGGFYRLKIYNPDNGQPIEFPINWDEVEEAIKNGDLDELAEHYPGAPIDKIEVEPVKPVPPVPPDEKSAGG [r13_629_TrROS] | < -1 kcal/mol
14 | SAGGSAGGMDEKLYITTAEVTVKEDGAPVPSTMTFKSKEEIEKYVKETFPPENVELKITTYPELSAGGSAGG [r6_114_JUSTAS] | < -1 kcal/mol
15 | SAMLVVKNKKTKKPIEIKIDPSMTPEEIKKKIEKLPDIPEEQKKEVEEAIELYIKLLENPELAKKFEKESAG [r14_732_TrMRF] | < -1 kcal/mol
16 | SAGGFNLKIMPMRMPRRKYDPEDGEPKKPEPVKMWMIQVEAKPGQTVSEIADELQKEFPGDNIMVMPSAGGS [r8_30_TrROS] | < -1 kcal/mol
17 | SAGGSAGGSAGVKEIADKFPGIKSIDVQRNKNGEQTVSIEHRSKGGPVKHTFPAEDLEPLSAGGSAGGSAGG [r17_116_TrROS] | < -1 kcal/mol
18 | SAGGSAGGSAGGDPNIEKTYKIKVAKGDKNGKIIKVIEKEIKVKTPEEAEKFAKELAKSSAGGSAGGSAGGS [r10_57_TrMRF] | < -1 kcal/mol
19 | SAGGSAPENDPWVWRVKIPYKKKNPNGEPERREREITFPFKSPEDAENFRDALREDGAEIEPVEPMSAGGSA [r15_117_TrROS] | < -1 kcal/mol

Row | Sequence | folding stability dG unfold
20 | SAGGEISIMFKSPEGVKEIAEELEENGLEVDVSPVPGYWMVRIQPKPKPPPTPEAAEKAQRDPDQANKSAGG [r13_8_TrROS] | < -1 kcal/mol
21 | SAGGSAGGSGGLGGEPISVRTELVTVPVELEEEVLLPGGVPLPRRRTVERVVAVTTRVPPGAALSAGGSAGG [r6_526_JUSTAS] | < -1 kcal/mol
22 | SAGGTVEELLRRVPFVEEAVVDVDSGVAYVRVPDRYYVVRVPLVAEPDEDGVLRPRTPVEVEPFAPESAGGS [r16_65_TrMRF] | < -1 kcal/mol
23 | SAGGSAGGSAGGSLALVRFPGDDRLFSVPVPEDLEAELVLPTPDGRPVGVRLFRVRDPRESAGGSAGGSAGG [r7_19_TrMRF] | < -1 kcal/mol
24 | SAGGSAGGSMKKLLVERKPDGTVTVVDVLPADRSAEELPPEELTSFTLLPFESLEEALKKAAASAGGSAGGS [r12_452_JUSTAS] | < -1 kcal/mol
25 | SAGGSAGGSAGGSPVYTLERTLPDGRPVRIEISGDEATITLESPEGGERTEKVSRSEILESAGGSAGGSAGG [r7_653_JUSTAS] | < -1 kcal/mol
26 | SAGGSAGGSAGGMIHIDPTPNGWKASVMNPNNGKPREIPFPPDNIPKLIPKGIDYVHIHPSAGGSAGGSAGG [r7_266_TrROS] | < -1 kcal/mol
27 | SAGGSAGGSAGGSLNISVSSEPLPGDLLVEKGEFPSPKTLTTLVEPGTGVVTTTTEAASSAGGSAGGSAGGS [r10_237_JUSTAS] | < -1 kcal/mol
28 | SAGGDNRQEREFHIPDPDGEDINITMEYNPSNGRTRVKVQPPEDGKPIKEIPADEMPPEAQDILKKISAGGS [r8_32_TrROS] | < -1 kcal/mol
29 | SAGGSVRAVEVRLYRPEGDFPVIEIDVEAPASFPDDPELRERAARSVAGPLTRELLEELGLVPIGPSAGGSA [r2_306_TrMRF] | -0.793 ± 0.52 kcal/mol
30 | SAGGSAGGSAGTVVVITPKNGEKFVFEAESSELPKIKEAFPELKIKDIDPGKGFIHVEVDSAGGSAGGSAGG [r17_22_TrMRF] | < -1 kcal/mol
31 | SAGGSAGGSAGSTEIGVYKLEGTDKVLVLAKKPNGSEVPVEFPASVTPEEAVEKAKKVVSSAGGSAGGSAGG [r17_161_TrMRF] | < -1 kcal/mol
32 | SAGGPVSEEIVTEKKTLEEDPKNGNTYSEIIMKTPNETIKVKGVKHPSGSTTYTVYTPNSKIATVNVSSAGG [r13_146_JUSTAS] | < -1 kcal/mol
33 | SAGGSAGGSAGVPPDAPEVVVTLTLRPPGPDTTVTLTVPAAELPPEAIPPGTVVERAVSPGASAGGSAGGSA [r18_21_JUSTAS] | < -1 kcal/mol
34 | SAGGSAGGGMMKTITITESVVLEVRPVTSENGRVYPEVLSEVLKTTTVPFPPGNEEEIEKAIKESAGGSAGG [r6_738_JUSTAS] | < -1 kcal/mol
35 | SAGGSAGGSPPPKVKVKKFHRDPPNGYVRANIEFPDKRDIEIQMENMPPDQAEEKAKNLAKKLSAGGSAGGS [r20_181_TrROS] | < -1 kcal/mol
36 | SAGGITLKEIREALKKGHMMRIEGPDGGKRRIPIDDLKDMPGIKPGMPLEDLKVRKIEWVPPDDGQPMSAGG [r13_587_TrROS] | < -1 kcal/mol
37 | SAGGSAGGSAGAPRVRSVTPVGEETFFLPEDRVVRVTLWAAEGEGPPRLFRRVEVLPLDESAGGSAGGSAGG [r11_129_TrMRF] | < -1 kcal/mol
38 | SAGGSAGGSLRPGEPFKIYSPNGEKFPFKIESVEVDPDGEIPLTITNPNGKPIGPFPYRIKPLSAGGSAGGS [r12_735_TrROS] | < -1 kcal/mol

Row | Sequence | folding stability dG unfold
39 | SAGGMPPGQKKTITLEMNEPGYFRIHNPNGGQEREFPINPDQSPSEFLDWAEDFAEDYGYPVEIEWHSAGGS [r16_446_TrROS] | < -1 kcal/mol
40 | SAGGSAGGSGEFLSDLPPDWEVSTEPLPSDTVRYTVTAPTGPVSAVSLPVGDREVRTSATPPVSAGGSAGGS [r20_50_JUSTAS] | < -1 kcal/mol
41 | SAGGSAGGSMNEVSEEEAIAEAVAKHAPDEPVTYELKDNKKIVVNVNGADPANVSIEVIPIKNSAGGSAGGS [r12_648_JUSTAS] | < -1 kcal/mol
42 | MKVLKTETKPIPGSGKIEVRVEYEVDGFFDPATGKPYSPDYLVTEKKTITVPPDSDDEIVTSSITFHPNLKS [r1_147_JUSTAS] | < -1 kcal/mol
43 | SAGGSAGGSAGGDNIKIDIDFDPGYGVFTSKIYPPNGGPISDLSIKIPPMSPEDLDKFKSAGGSAGGSAGGS [r10_717_TrROS] | < -1 kcal/mol
44 | SAGGSAGGSAGGSRIHIEPDNNNYRIKNRNPGGKKEEFPFDSLEDLKDLPPGFPVEIYDSAGGSAGGSAGGS [r4_447_TrROS] | < -1 kcal/mol
45 | SAGGSAGGSAGGPETRVVYEPLPDGTSKIVEVEAAEDYVTVPVPFPNGGEAVFTVKPGELSAGGSAGGSAGG [r7_829_TrMRF] | < -1 kcal/mol
46 | SAGGSAGGSRYFIRIELRHPDDGQEYEPTIPINPGQTEEQVKQEIREHHPGADIKDIEIYPMDSAGGSAGGS [r12_738_TrROS] | < -1 kcal/mol
47 | SAGMTTTETIEFPDSTTATVTSVEEGPTPNGTPVTTRTVTVTTYTPLRDADGKLLGEVPQTSTSTLTVASAG [r5_476_JUSTAS] | < -1 kcal/mol
48 | SAGGSAGGSMEMETYPLNGFTVMVMRNPNDGRETVQIFMPDNGKPIQMPPEDLQQDPDLIDALSAGGSAGGS [r12_817_TrROS] | < -1 kcal/mol
49 | SAGGAMTPDGTSVTIPYEAKTPTGEASEEEARERIEEELAARPDVALTRVEFEREGDRIKATVYTRVPRSAG [r5_688_JUSTAS] | < -1 kcal/mol
50 | SAGGSAEPKPGVKAILFNENGEPIKEVSENEEILLPNGTPTKVYRLPDNSSIATHPDGYVALFVEGSAGGSA [r15_845_TrMRF] | < -1 kcal/mol
51 | SAGGSAGGRIRVPDGREIPPGQSKEEAKDQVKDWFKERNPQNGNKKVKIEAEKWDGMPWIRVKPSAGGSAGG [r6_558_TrROS] | < -1 kcal/mol
52 | SAGGSAGGSHWAEELAKEAGLKVKIDDMMKNPDGYPYVIVKIKPPDGGKRTVMFDGNQPRIYPSAGGSAGGS [r12_279_TrROS] | < -1 kcal/mol
53 | SAGGSAGGSAGMVRIKITHNNGRKNTFKIPPNITEVKEVEIKLPPELQDNITKVEIEPLDSAGGSAGGSAGG [r17_528_TrROS] | < -1 kcal/mol
54 | SAGGSAGGSAGGKVIHIPAGDAKTFIKEALEKDKDQPIVIHMYNPDGKEYSTMEVKIKPSAGGSAGGSAGGS [r10_741_TrROS] | < -1 kcal/mol
55 | SMTIEELLKKHPNLSAEELAKLIADELKKKLPPGAKITVTVEEKDGKLVLKVEVEVNGKKITIELEIELKSA [r9_805_TrROS_Hall] | > 6 kcal/mol
56 | SAGGSAGGSAGGMTETIPVSPSELDEVIEEAKKKGLKKIVLKDPNSSKKTVITKDKVEDESAGGSAGGSAGG [r7_564_JUSTAS] | < -1 kcal/mol
57 | SAGGSAGGSAGSVAEALADKTITVTSPSSSTPYTATITPGADDTLRVGSPGSSGTDISVARLSAGGSAGGSA [r18_169_JUSTAS] | < -1 kcal/mol

Source: the supplement of paper PMC12764529
